Results: patent publication US11428689B2, “Methods and uses for remotely triggered protease activity measurements” (Massachusetts Institute of Technology, priority 2016, dated 2022)
Where no end group is shown, it is not given here. [ ]: non-standard residue; d: D form. FAM = fluorescein

Assays:
MMP1 = biological target: T1, MMP1 (Homo sapiens, UniProt P03956); test: In vitro recombinant protease assay (fluorescence dequenching of NP-bound substrate); assay type: biochemical; settings: unmodified substrate on particle
T1 construct: purchased Enzo Life Sciences
T1 sequence (P03956 100-469): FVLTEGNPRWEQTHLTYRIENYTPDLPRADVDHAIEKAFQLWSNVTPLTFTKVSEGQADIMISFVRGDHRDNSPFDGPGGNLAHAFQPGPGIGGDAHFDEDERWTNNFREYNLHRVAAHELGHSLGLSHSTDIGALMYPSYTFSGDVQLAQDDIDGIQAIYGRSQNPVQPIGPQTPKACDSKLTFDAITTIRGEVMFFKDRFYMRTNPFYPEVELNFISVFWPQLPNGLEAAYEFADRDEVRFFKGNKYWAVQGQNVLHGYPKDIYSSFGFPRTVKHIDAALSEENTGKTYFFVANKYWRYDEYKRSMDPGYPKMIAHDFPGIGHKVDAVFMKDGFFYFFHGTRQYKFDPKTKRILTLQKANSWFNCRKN
Procedure: (§1) C1-NP complexes sensitive to MMP cleavage were mixed with 1% (wt/vol) BSA (Sigma) and incubated with recombinant proteases (MMPs and ADAMs: Enzo Life Sciences; Clotting proteases: Haematologic Technologies) in a final volume of 100 μL in enzyme-specific buffers (MMP buffer: 50 mM Tris, 150 mM NaCl, 5 mM CaCl2, 1 μM ZnCl2, pH 7.5; Clotting proteases: PBS) in a 384-well plate for time-lapse fluorimetry to measure dequenching from homoquenched peptides at 37° C. (SpectroMax Gemini EM Microplate Reader). For the metalloproteinase, enzymes were diluted 1:10 in enzyme specific buffer, and for clotting proteases, enzymes were diluted 1:100. Cleavage heatmap was generated using GENE-E (Broad Institute). Michaelis-Menten constants were determined by assessing initial cleavage velocities at different substrate concentrations. The MMP inhibitor Marimatstat (Tocris) was added to the mixture at 100 μM final concentration. To identify the cleavage position by MMP9, C1-NPs were incubated with MMP9 overnight, and the N-terminal cleavage fragment was isolated and analyzed by MALDI. The sequence corresponding to the dominant peak was identified, and the final amino acid was in that sequence represents the P1 position (toward the N-terminal end from scissile bond). For protease resistance assays, various DMNPE: peptide ratios were reacted overnight and purified prior to being added to proteases.

MMP7 = biological target: T2, MMP7 (Homo sapiens, UniProt P09237); test: as above; assay type: biochemical; settings: unmodified substrate on particle
T2 construct: purchased Enzo Life Sciences
T2 sequence (P09237 95-267): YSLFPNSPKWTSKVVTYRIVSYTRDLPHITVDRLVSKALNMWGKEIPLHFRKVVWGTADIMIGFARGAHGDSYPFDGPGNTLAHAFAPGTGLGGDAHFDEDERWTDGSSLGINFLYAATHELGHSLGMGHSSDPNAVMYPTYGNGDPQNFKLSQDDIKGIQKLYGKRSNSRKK
Procedure: as §1

MMP14 = biological target: T3, MMP14 (Homo sapiens, UniProt P50281); test: as above; assay type: biochemical; settings: unmodified substrate on particle
T3 construct: purchased Enzo Life Sciences
Procedure: as §1

CCD-18Co cell line = test: Secreted protease activity assay, conditioned media; assay type: cell-based; settings: conditioned media from CCD-18Co cells
Procedure: (§2) LS174T and CCD-18Co (ATCC CRL-1459) cells were cultured in Eagle's Minimal Essential Medium (ATCC) supplemented with 10% FBS (Gibco) and 1% penicillin-streptomycin (CellGro). Cells were passaged when confluence reached 80%. To isolate secreted proteases, after cells were plated, cells were washed and replaced in serum-free media. Conditioned media was collected 24 h later and exposed to C1-NPs to measure fluorescence dequenching.

LS174T cells [1] = test: 3D collagen cancer tissue model, peptide fluorescence in supernatant; assay type: cell-based, human
Procedure: Next, the activation of the nanosensors in a 3D ECM environment was probed. Forty LS174T cells were embedded in collagen I together with veiled or unmodified nanosensors (FIG. 4A). The constructs were monitored for protease activity by collecting the supernatant and measuring liberated peptide fragments under different conditions: L-amino acid peptide substrates were compared to D-amino acid counterparts to measure nonspecific background, and the role of DMPNE veiling was measured.
In order to correlate regions of light-activation with protease activity measurements, light-activated rhodamine dye was included to visualize regions exposed to light (FIG. 12A). To explore the ability to monitor protease activity with spatial and temporal control, only the left half of the gels was illuminated.
LS174T cells were encapsulated in 2.5 mg/mL collagen hydrogels (rat tail collagen type I, Corning). Imaging was done on Nikon Eclipse Ti Inverted Microscopes and Zeiss Stereoscope Discovery v20. When protease activity was measured, surrounding media was serum-free.

MMP9 = MMP9 (Homo sapiens, UniProt P14780); test: In vitro recombinant protease assay (fluorescence dequenching of NP-bound substrate); assay type: biochemical; parameters: purchased Enzo Life Sciences
Procedure: as §1
(§3) Light activation of peptides for biochemical studies was performed using a CL-1000 UV Cross-linker (UVP, 8 mW/cm^2). Power density was measured by an OAI 306 UV power meter at 365 nm. Typical exposure time for these studies was 10-30 min. For activation in cell and animal studies, Lumen Dynamics UV system with 365 nm fiber light guide was used (OmniCure 1000, 200 mW/cm^2). For in vivo activation at the tumor site, mice were anesthetized, and the light was guided through an optical cable and placed approximately 3 cm from the flank tumor. Each flank tumor was exposed for 30 s.

LS174T cells [2] = test: Secreted protease activity assay, conditioned media; assay type: cell-based, human; settings: conditioned media from LS174T cells
Procedure: as §2

[3] = NP stability in physiological solution (lack of fluorescent dequenching); assay type: in vitro ADME; settings: physiological solution (human control serum, FIG. 7C), 37° C., 24 h
Procedure: Next, whether STREAMs could provide both spatial and temporal control of MMP activity measurements was tested. First, whether the veiled NPs would block protease cleavage until activation by light was evaluated. Due to homoquenching of the fluorescent substrates once assembled on the NPs, protease activity can be monitored by measuring increases in sample fluorescence that occurs from peptide proteolysis (FIG. 7B). NPs were stable in physiological solution at 37° C. over 24 h, as confirmed by a lack of fluorescent dequenching (FIG. 7C).

MMP13 = biological target: T4, MMP13 (Homo sapiens, UniProt P45452); test: In vitro recombinant protease assay (fluorescence dequenching of NP-bound substrate); assay type: biochemical; settings: for cleavage of substrate by MMP13: unmodified substrate on particle
T4 construct: purchased Enzo Life Sciences
Procedure: as §1, §3

MMP9, sequence (P14780 94-707, species assumed): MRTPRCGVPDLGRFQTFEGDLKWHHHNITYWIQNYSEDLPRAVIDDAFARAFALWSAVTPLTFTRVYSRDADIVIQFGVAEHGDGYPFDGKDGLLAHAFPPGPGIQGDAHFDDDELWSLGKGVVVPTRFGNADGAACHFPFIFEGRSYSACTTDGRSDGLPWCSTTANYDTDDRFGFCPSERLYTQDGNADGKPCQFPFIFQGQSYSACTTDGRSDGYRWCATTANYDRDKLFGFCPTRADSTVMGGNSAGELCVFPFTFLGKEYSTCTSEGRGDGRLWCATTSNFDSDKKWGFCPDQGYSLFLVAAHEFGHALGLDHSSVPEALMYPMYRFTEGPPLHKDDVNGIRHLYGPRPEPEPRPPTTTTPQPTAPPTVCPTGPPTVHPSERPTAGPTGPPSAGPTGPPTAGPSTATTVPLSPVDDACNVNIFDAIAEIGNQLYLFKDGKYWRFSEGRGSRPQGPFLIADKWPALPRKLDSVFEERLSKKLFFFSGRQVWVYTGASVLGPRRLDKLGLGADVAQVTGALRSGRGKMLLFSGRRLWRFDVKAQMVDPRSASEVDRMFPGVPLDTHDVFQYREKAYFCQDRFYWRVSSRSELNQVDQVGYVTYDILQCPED

cleavage of substrate by MMP1 (MMP1): significantly cleaved | cleavage of substrate by MMP7 (MMP7): significantly cleaved | cleavage of substrate by MMP14 (MMP14): able to cleave the substrate | cleavage of substrate by MMP9 (MMP9; unmodified substrate on particle): significantly cleaved | cleavage of substrate by MMP13 (MMP13): most efficient | cleavage of substrate by MMP13 (MMP13; listed as C1-NP): significantly cleaved
Substance: C1-NPs: Iron oxide NPs functionalized with fluorescein-conjugated peptide substrate C1 at surface valency >20; in vitro protease sensor ({FAM}-[dS][dK]PLGLEEAGC(iron oxide nanoparticle); not fully specified; printed as FAM-sk-PLGLEEA-GC; also: C-terminal Cys coupled to iron oxide nanoparticle)
cleavage by cell-secreted proteases (CCD-18Co cell line): significantly lower compared to LS174T cells | liberated peptide fluorescence in supernatant (LS174T cells [1]; first day, no light): significantly more fluorescent peptides than those with D-amino acid NPs | peptide fluorescence in supernatant after light exposure (LS174T cells [1]; left half of gels illuminated, 24 h, 30 s at 200 mW/cm^2): did not exhibit significant changes in peptide fluorescence | catalytic efficiency (MMP9; MMP9, Michaelis-Menten fit): > 10^3 M^−1 s^−1 | cleavage by cell-secreted proteases (LS174T cells [2]): peptide cleavage and a dose-dependent increase in fluorescence | stability (lack of fluorescent dequenching) [3]: stable | catalytic efficiency (MMP13; MMP13, Michaelis-Menten fit): > 10^4 M^−1 s^−1
